{
  "source": "patent US20210025886A1",
  "about": "(Alexion, published 2021)",
  "molecular_target": "T1, complement fragment C3a (Complement Technologies cat # A118) (human, UniProt P01024 672-748)",
  "T1 construct": "domain: C3a; also called purified C3a",
  "T1 sequence (P01024 672-748 limits assumed)": "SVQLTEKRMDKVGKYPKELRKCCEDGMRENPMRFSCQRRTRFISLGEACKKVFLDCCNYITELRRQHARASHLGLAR",
  "assay": "TR-FRET sandwich, purified C3a titrated from 66.6 nM, antibodies 50 nM each",
  "protocol": "Labeled antibodies were then used to detect C3a in a sample that also contained intact C3 and C3b fragments. […] For the detection assay, complement C3 and fragments C3a and C3b were purchased from Complement Technologies (cat # A113c, A118, and A114, respectively). They were aliquoted and stored at −80° C. Each complement protein was titrated individually or as a mixture in assay buffer (10 mM HEPES pH 7.4, 0.1% BSA) at final concentrations of 66.6 nM serially diluted. Detection antibodies were combined in assay buffer to make a C3a detection mixture at final concentrations of 50 nM each in assay. Then, 15 μl of the appropriate C3 reagent was added to the appropriate wells of a white 384 well Optiplate (Perkin Elmer Cat. #600-7290). To each well, 15 μl antibody detection mix was then added. The plate was spun at 4000 RPM for 20 seconds and read on a Paradigm Spectramax instrument using the Cisbio htrf cartridge (excite at 340 nm and emit at 615 nm and 665 nm). The plate was read periodically and the signal calculated by dividing the 665 signal by the 615 signal and multiplying by 10000.",
  "data": [
    {"binder": "C3a antibody YHP133 (antibody, human IgG1, kappa, V domains shown, labeled with d2 dye (Cisbio d2 labeling kit); site not stated, Synthesized and purified according to standard procedures; used d2-labeled in the FRET assays; also called the other C3a antibody; acceptor antibody) VH: EVQLQQSGAELVRPGASVKLSCTASGFNIKDSLIHWVKQRPEQGLEWIGWIDPDDGETKYAPKFQDKATITADTSSNTAYLQFSSLTSEDTAIYYCAGRSGEGYFDYWGQGTTVTVSS VL: DIVMTQSPATLSVTPGDRVSLSCRASQSISDYLHWYQQKSHESPRLLIKYASQSISGIPSRFSGSGSGSDFTLSINSVEPEDVGVYYCQNGHSFPLTFGAGTKVEIKR", "values": [
      {"measurement": "binding result", "result": "binds"}
    ]}
  ]
}
